Test results: patent publication US20240301385, “DNA MODIFYING ENZYMES AND ACTIVE FRAGMENTS AND VARIANTS THEREOF AND METHODS OF USE” (LIFEEDIT THERAPEUTICS, INC., published 2024)

Experiments:
[1] = molecular target: T1, APG00868.1-L16-nAPG07433.1 (truncated deaminase) (synthetic); experiment: cell_activity; HEK293FT; PAM SEQ 152; conditions: tags: SV40 NLS, 3xFLAG N-term; nucleoplasmin NLS C-term
T1 chain: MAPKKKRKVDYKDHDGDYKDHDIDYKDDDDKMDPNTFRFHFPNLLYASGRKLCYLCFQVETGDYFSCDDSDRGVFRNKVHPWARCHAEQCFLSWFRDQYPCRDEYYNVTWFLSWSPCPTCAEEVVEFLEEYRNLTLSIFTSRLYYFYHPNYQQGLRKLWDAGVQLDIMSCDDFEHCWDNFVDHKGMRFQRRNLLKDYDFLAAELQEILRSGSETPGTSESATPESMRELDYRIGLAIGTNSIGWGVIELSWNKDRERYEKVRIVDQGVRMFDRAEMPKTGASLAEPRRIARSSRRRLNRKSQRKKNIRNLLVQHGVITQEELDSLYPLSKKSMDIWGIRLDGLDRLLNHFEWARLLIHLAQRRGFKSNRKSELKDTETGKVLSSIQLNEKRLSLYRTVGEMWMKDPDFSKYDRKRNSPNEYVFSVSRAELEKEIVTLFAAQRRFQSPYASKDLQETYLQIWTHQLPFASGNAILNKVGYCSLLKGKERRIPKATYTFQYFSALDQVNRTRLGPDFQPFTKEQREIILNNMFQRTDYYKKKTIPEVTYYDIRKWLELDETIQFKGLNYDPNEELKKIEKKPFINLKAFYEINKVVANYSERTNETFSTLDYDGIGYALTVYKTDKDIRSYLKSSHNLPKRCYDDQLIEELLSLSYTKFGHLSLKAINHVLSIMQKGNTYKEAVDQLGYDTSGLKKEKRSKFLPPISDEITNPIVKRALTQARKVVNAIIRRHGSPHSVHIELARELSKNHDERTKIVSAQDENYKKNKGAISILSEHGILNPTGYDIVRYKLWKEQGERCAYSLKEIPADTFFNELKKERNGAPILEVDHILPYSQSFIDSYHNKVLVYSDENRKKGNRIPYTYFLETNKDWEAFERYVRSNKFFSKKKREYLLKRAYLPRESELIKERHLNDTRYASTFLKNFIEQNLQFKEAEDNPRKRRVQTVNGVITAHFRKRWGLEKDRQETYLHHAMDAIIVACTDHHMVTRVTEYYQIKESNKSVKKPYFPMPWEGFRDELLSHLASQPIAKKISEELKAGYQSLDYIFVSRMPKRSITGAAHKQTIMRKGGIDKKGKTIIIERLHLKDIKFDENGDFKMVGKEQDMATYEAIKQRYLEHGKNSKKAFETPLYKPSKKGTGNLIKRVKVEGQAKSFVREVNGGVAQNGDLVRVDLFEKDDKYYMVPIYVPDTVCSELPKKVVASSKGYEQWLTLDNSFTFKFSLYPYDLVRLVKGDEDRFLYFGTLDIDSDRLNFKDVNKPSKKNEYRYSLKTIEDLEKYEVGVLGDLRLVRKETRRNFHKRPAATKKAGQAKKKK
In short: (§1)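 Editing read out by next-generation sequencing (MiSeq 2×250) of PCR amplicons spanning the target site, analysed for INDELs or % cytosine conversion per position (position 1 nearest PAM).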

APG30125-L32-nAPG07433.1 = molecular target: T2, APG30125-L32-nAPG07433.1 (synthetic); experiment: cell_activity; HEK293FT; PAM SEQ 152; conditions: tags: SV40 NLS, 3xFLAG N-term; nucleoplasmin NLS C-term
T2 chain: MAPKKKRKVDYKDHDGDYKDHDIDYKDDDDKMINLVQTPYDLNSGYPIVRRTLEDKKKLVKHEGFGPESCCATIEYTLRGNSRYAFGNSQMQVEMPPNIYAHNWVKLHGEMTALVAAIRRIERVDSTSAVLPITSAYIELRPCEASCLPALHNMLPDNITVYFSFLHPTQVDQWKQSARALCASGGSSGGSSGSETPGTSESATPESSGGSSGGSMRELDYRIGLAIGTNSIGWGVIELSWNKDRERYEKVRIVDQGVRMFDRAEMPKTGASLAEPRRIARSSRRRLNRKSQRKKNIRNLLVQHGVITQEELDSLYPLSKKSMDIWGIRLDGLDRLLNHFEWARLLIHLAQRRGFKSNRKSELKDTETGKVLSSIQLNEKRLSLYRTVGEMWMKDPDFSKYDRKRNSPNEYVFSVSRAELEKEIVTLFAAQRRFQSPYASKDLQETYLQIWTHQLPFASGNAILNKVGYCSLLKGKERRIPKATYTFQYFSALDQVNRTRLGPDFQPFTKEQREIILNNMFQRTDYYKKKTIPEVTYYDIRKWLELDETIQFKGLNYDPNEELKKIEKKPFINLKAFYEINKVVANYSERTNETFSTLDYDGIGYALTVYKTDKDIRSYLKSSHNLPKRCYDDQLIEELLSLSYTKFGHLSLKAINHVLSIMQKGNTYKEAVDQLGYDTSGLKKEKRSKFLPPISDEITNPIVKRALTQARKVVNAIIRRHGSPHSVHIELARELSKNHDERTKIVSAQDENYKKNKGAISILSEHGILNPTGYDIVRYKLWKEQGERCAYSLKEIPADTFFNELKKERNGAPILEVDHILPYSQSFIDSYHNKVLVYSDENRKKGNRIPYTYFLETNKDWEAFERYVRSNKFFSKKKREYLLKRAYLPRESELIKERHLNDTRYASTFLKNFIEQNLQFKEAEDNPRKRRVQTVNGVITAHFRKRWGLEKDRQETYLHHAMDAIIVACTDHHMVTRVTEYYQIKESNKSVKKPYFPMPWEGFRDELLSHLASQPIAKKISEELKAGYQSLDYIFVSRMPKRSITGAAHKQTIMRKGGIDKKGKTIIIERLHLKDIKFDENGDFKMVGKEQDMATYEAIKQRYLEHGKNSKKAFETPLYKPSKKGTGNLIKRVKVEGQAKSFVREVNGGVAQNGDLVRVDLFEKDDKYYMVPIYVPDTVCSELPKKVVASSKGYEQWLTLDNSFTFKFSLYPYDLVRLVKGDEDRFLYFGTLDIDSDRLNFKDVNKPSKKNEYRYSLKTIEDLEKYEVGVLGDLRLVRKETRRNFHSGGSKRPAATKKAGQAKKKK
In short: as §1

B1: SGN001101 sgRNA ; SGN001101 target (ssRNA ; dsDNA)
RNA: AUAUUUUCUUUAAUGGUGCCAGGCAGUCAUAGUUCCAUUAAAGCCAAAAGUGGCUUUGAUGUUUCUAUGAUAAGGGUUUCGACCCGUGGCGUCGGGGAUCGCCUGCCCAUUGAAAUGGGCUUCUCCCCAU
DNA 1: ATATTTTCTTTAATGGTGCCAGGCA
DNA 2: TGCCTGGCACCATTAAAGAAAATAT
Question: B1 was tested. Which activity [1] did it give?
Answer: 20.4 % mutated reads

B2: SGN000169 sgRNA ; SGN000169 target (ssRNA ; dsDNA)
RNA: CACAUCUCGAGCAAGACGUUGUCAUAGUUCCAUUAAAGCCAAAAGUGGCUUUGAUGUUUCUAUGAUAAGGGUUUCGACCCGUGGCGUCGGGGAUCGCCUGCCCAUUGAAAUGGGCUUCUCCCCAUUUAUU
DNA 1: CACATCTCGAGCAAGACGTT
DNA 2: AACGTCTTGCTCGAGATGTG
Question: For B2, which activity (APG30125-L32-nAPG07433.1) is on record?
Answer: 6.89 % mutated reads

Question: And the activity [1]?
Answer: 22.4 % mutated reads

B3: SGN000929 sgRNA ; SGN000929 target (ssRNA ; dsDNA)
RNA: AUCUGGAGGGAACUUACAGCAUAUGGUCAUAGUUCCAUGAAAGCCAAAAGUGGCUUUGAUGUUUCUAUGAUAAGGGUUUCGGCCCGUGGCGUCGGGGAUCGCCUGCCCAUUCCGAUGGGCUUCUCCCCAUUUAUU
DNA 1: ATCTGGAGGGAACTTACAGCATATG
DNA 2: CATATGCTGTAAGTTCCCTCCAGAT
Question: Which activity (APG30125-L32-nAPG07433.1) does the source give for B3 here?
Answer: 7.39 % mutated reads

Question: What about the activity [1] of the same binder?
Answer: 14.6 % mutated reads
